This test relates to RAW264.7 macrophages. The test is described as follows: Intracellular uptake of FITC-rmCIRP by macrophages (flow cytometry, confocal microscopy). The test is classed as cell-based, mouse. The procedure:
FIG. 3. Effects of MOP peptides MOP-3, MOP-8 and MOP-14 on eCIRP. Flow cytometry experiment whereby RAW264.7 macrophages were treated for 1 hour according to respective group: PBS (volume-equivalent), FITC-rmCIRP (1 μg/mL), or a mixture of FITC-rmCIRP (1 μg/mL) with each respective peptide (10 μg/mL) after co-incubating for 30 minutes. Intracellular FITC-rmCIRP was analyzed by flow cytometry. Median fluorescence intensity (MFI) reported as percentage relative to PBS-treated RAW264.7 cells. Data from two independent experiments are expressed as mean±SEM and compared by one-way ANOVA and SNK test. *p<0.05 vs. PBS, #p<0.05 vs. eCIRP.
Computational modeling was used to determine the likely domain of MFG-E8's binding to eCIRP. The known amino acid (AA) sequence of this domain was used to develop and test potential therapeutic peptides. An MFG-E8 derived oligopeptide, MOP3, was developed based on 15 AA from MFG-E8 discoidin 2 domain (mimicking MFG-E8's C-terminal) and tagged with the 3 AA, RGD, (mimicking MFG-E8's binding capacity for the integrin receptor at the N-terminal). Binding of MOP3 to CIRP was quantified using Surface Plasmon Resonance (SPR) analysis. Macrophages (RAW264.7 cells) were treated with FITC-recombinant mouse (rm)-CIRP or co-incubated MOP3 and FITC-rmCIRP with and without a. Br-integrin Ab. After 1 h, cells were fixed and analyzed for intracellular FITC-rmCIRP by flow cytometry. Macrophages were stimulated with rmCIRP or co-incubated mixture of MOP3 and rmCIRP. After 4 h, cell culture supernatants were analyzed for inflammatory cytokine, TNFα.
Mouse macrophage cell line, RAW264.7 cells were obtained from American Type Culture Collection (ATCC) and cultured in DMEM media with 10% FBS, 1% penicillin and streptomycin, and 1% glutamine. Cells were kept in 37° C. incubator under humidified conditions containing 5% CO2.
rmCIRP was labeled using a FITC Conjugation Kit (Abcam, ab188285), and rmMFG-E8 was labeled using Alexa Fluor Conjugation Kit (Abcam, ab269821), both according to respective manufacturer's instructions.
In order to visualize cellular uptake, we initially utilized TRITC-BSA as an internal probe, as BSA is taken up into cells primarily by endocytosis and retained intracellularly after fixation (27, 28). For further visualization of intracellular localization, we utilized LAMP1 primary antibody (as it is distributed among endolysosomal organelles and serves as a marker for lysosomal compartments) (29), and utilized lysotracker in live cell experiments (as it allows for imaging of dynamics of lysosome vesicle movements) (30). […] Images were quantified and analyzed using Image J, FIJI.(31) Flow cytometry. […]
Background: A flow cytometer gives signals particle by particle.

B1: milk fat globule-epidermal growth factor—factor VIII (protein, listed as Mus musculus)
chain: MQVSRVLAALCGMLLCASGLFAASGDFCDSSLCLNGGTCLTGQDNDIYCLCPEGFTGLVCNETERGPCSPNPCYNDAKCLVTLDTQRGDIFTEYICQCPVGYSGIHCETETNYYNLDGEYMFTTAVPNTAVPTPAPTPDLSNNLASRCSTQLGMEGGAIADSQISASSVYMGFMGLQRWGPELARLYRTGIVNAWTASNYDSKPWIQVNLLRKMRVSGVMTQGASRAGRAEYLKTFKVAYSLDGRKFEFIQDESGGDKEFLGNLDNNSLKVNMFNPTLEAQYIKLYPVSCHRGCTLRFELLGCELHGCSEPLGLKNNTIPDSQMSASSSYKTWNLRAFGWYPHLGRLDNQGKINAWTAQSNSAKEWLQVDLGTQRQVTGIITQGARDFGHIQYVASYKVAHSDDGVQWTVYEEQGSSKVFQGNLDNNSHKKNIFEKPFMARYVRVLPVSWHNRITLRLELLGC
Regarding B1, the “FITC-eCIRP uptake (confocal fluorescence microscopy)” value (RAW264.7, 4 hours, vs FITC-eCIRP alone) is listed as “marked increase of FITC-eCIRP uptake”. Under “RAW264.7, FITC-rmCIRP 1 μg/mL co-incubated with test substance (peptide 10 μg/mL), 1 hour, vs FITC-rmCIRP alone”, the “intracellular FITC-rmCIRP uptake (flow cytometry)” value was “enhanced internalization of FITC-eCIRP”. In addition, the “intracellular FITC-eCIRP with αvβ3-integrin neutralizing antibody (confocal fluorescence microscopy)” value (RAW264.7, vs IgG isotype control) is on record as “remarkably reduced”. Also, where the note is “RAW264.7, αvβ3-integrin antibody 0.5 μg/mL”, the “intracellular FITC-rmCIRP uptake with αvβ3-integrin blocking antibody (flow cytometry)” value is on record as “significantly reduced”.

Source of the values: patent publication US20240197828A1, “Chimeric molecule to treat sepsis and other inflammatory conditions” (THE FEINSTEIN INSTITUTES FOR MEDICAL RESEARCH, priority 2022, published 2024).
